Reference: PMC3155546 (PLoS ONE, 2011)

Biological target: T1, GST-TPPP1–219 (human, UniProt O94811 1-219)
T1 construct: also called GST-TPPP(FL); full-length TPPP
Experiment: co-IP
Details: both partners purified

T1 sequence (O94811 whole entry): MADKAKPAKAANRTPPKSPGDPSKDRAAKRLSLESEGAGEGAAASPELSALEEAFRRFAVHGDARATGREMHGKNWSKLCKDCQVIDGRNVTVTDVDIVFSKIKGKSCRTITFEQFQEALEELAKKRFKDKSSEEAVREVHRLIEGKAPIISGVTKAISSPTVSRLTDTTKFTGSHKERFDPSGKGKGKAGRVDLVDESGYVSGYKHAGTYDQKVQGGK

Q: Does KTNMKHMAGAAAAGAVVGGLG (domain or fragment) [GST-PrP106–126] bind?
A: binds
